Reference: patent US5955329
Each block holds one molecule with its values, some of them ahead of it.

Legend:
[1] = target: California bay (Umbellularia californica) C12 preferring acyl-ACP thioesterase, wild type, mature protein from pCGN3823 (California bay (Umbellularia californica)); experiment: inhibition kinetics of thioesterase activity; slope inhibition constant of 12:0-ACP with 14:0-ACP as varied substrate
[2] = target: bay thioesterase triple mutant M197R/R199H/T231K (California bay (Umbellularia californica)); experiment: as above
[3] = target: California bay (Umbellularia californica) C12 preferring acyl-ACP thioesterase, wild type, mature protein from pCGN3823 (California bay (Umbellularia californica)); experiment: inhibition of 14:0-ACP thioesterase activity; 25 µM cold 12:0-ACP against 5 µM 14C labeled 14:0-ACP as competitor
[4] = target: bay thioesterase triple mutant M197R/R199H/T231K (California bay (Umbellularia californica)); experiment: as above
[5] = target: California bay (Umbellularia californica) C12 preferring acyl-ACP thioesterase, wild type, mature protein from pCGN3823 (California bay (Umbellularia californica)); experiment: inhibition of 14:0-ACP thioesterase activity; 5 µM cold 12:0-ACP against 5 µM 14C labeled 14:0-ACP as competitor
[6] = target: bay thioesterase triple mutant M197R/R199H/T231K (California bay (Umbellularia californica)); experiment: as above
14:0-ACP [7] = target: 14:0-ACP
16:0 acyl-ACP [8] = target: 16:0 acyl-ACP
18:0 acyl-ACP [9] = target: 18:0 acyl-ACP
16:0 acyl-ACP [10] = target: 16:0 acyl-ACP; remark: listed apart in the source
18:0 acyl-ACP [11] = target: 18:0 acyl-ACP; remark: listed apart in the source
14:0-ACP [12] = target: 14:0-ACP; remark: listed apart in the source
12:0-ACP [13] = target: 12:0-ACP
14:0-ACP [14] = target: 14:0-ACP; remark: listed apart in the source
12:0-ACP [15] = target: 12:0-ACP; remark: listed apart in the source
[16] = target: acyl-ACP substrates (chain length not stated for this assay)
12:0-ACP [17] = target: 12:0-ACP; remark: listed apart in the source

Molecule: 12:0-ACP
Ki [1]: 10.2 µM | Ki [2]: 11.6 µM | Inhibition (%) [3]: 78% | Inhibition (%) [4]: 76% | Inhibition (%) [5]: 53% | Inhibition (%) [6]: 48%

Molecule: Cuphea palustris Class II acyl-ACP thioesterase CpFatB1 (MCT29), mature region as lacZ fusion protein (MCT29LZ) (enzyme)
acyl-ACP thioesterase activity (% of the C8-ACP activity) (14:0-ACP [7]): 10

Molecule: Cuphea palustris Class II acyl-ACP thioesterase CpFatB2 (MCT34), mature region as lacZ fusion protein (MCT34LZ) (enzyme)
acyl-ACP thioesterase activity (% of the C14-ACP activity) (16:0 acyl-ACP [8]): 30

B1: California bay (Umbellularia californica) C12 preferring acyl-ACP thioesterase, wild type, mature protein from pCGN3823 (enzyme)
chain: LEWKPKPKLPQLLDDHFGLHGLVFRRTFAIRSYEVGPDRSTSILAVMNHMQEATLNHAKSVGILGDGFGTTLEMSKRDLMWVVRRTHVAVERYPTWGDTVEVECWIGASGNNGMRRDFLVRDCKTGEILTRCTSLSVLMNTRTRRLSTIPDEVRGEIGPAFIDNVAVKDDEIKKLQKLNDSTADYIQGGLTPRWNDLDVNQHVNNLKYVAWVFETVPDSIFESHHISSFTLEYRRECTRDSVLRSLTTVSGGSSEAGLVCDHLLQLEGGSEVLRARTEWRPKLTDSFRGISVIPAEPRV
Km,app (14:0-ACP [12]): 6.4 µM | Km,app (12:0-ACP [13]): 1.9 µM

B2: bay thioesterase mutant R322M/R327Q (enzyme)
chain: LEWKPKPKLPQLLDDHFGLHGLVFRRTFAIRSYEVGPDRSTSILAVMNHMQEATLNHAKSVGILGDGFGTTLEMSKRDLMWVVRRTHVAVERYPTWGDTVEVECWIGASGNNGMRRDFLVRDCKTGEILTRCTSLSVLMNTRTRRLSTIPDEVRGEIGPAFIDNVAVKDDEIKKLQKLNDSTADYIQGGLTPRWNDLDVNQHVNNLKYVAWVFETVPDSIFESHHISSFTLEYRRECTMDSVLQSLTTVSGGSSEAGLVCDHLLQLEGGSEVLRARTEWRPKLTDSFRGISVIPAEPRV
thioesterase specific activity (fold decrease) (14:0-ACP [14]): 30 | thioesterase specific activity (fold decrease) (12:0-ACP [15]): 100

B3: bay thioesterase mutant C320S (enzyme)
chain: LEWKPKPKLPQLLDDHFGLHGLVFRRTFAIRSYEVGPDRSTSILAVMNHMQEATLNHAKSVGILGDGFGTTLEMSKRDLMWVVRRTHVAVERYPTWGDTVEVECWIGASGNNGMRRDFLVRDCKTGEILTRCTSLSVLMNTRTRRLSTIPDEVRGEIGPAFIDNVAVKDDEIKKLQKLNDSTADYIQGGLTPRWNDLDVNQHVNNLKYVAWVFETVPDSIFESHHISSFTLEYRRESTRDSVLRSLTTVSGGSSEAGLVCDHLLQLEGGSEVLRARTEWRPKLTDSFRGISVIPAEPRV
thioesterase activity (% of the wild-type activity) [16]: 80

B5: bay thioesterase mutant M197R/R199H (enzyme)
chain: LEWKPKPKLPQLLDDHFGLHGLVFRRTFAIRSYEVGPDRSTSILAVMNHMQEATLNHAKSVGILGDGFGTTLEMSKRDLMWVVRRTHVAVERYPTWGDTVEVECWIGASGNNGRRHDFLVRDCKTGEILTRCTSLSVLMNTRTRRLSTIPDEVRGEIGPAFIDNVAVKDDEIKKLQKLNDSTADYIQGGLTPRWNDLDVNQHVNNLKYVAWVFETVPDSIFESHHISSFTLEYRRECTRDSVLRSLTTVSGGSSEAGLVCDHLLQLEGGSEVLRARTEWRPKLTDSFRGISVIPAEPRV
thioesterase activity (12:0-ACP [17]): 7 fold reduced

Further lines, results first:

Acyl-ACP Thioesterase activity (cpm/min) (18:0 acyl-ACP [9]): 23900 cpm/min | Acyl-ACP Thioesterase activity (cpm/min) (16:0 acyl-ACP [10]): 4370 cpm/min | Acyl-ACP Thioesterase activity (cpm/min) (18:1 acyl-ACP): 87400 cpm/min
Molecule: mangosteen (Garcinia mangifera) Class I acyl-ACP thioesterase GarmFatA1, wild type (enzyme)

thioesterase activity, preference 18:0/18:1 (% (18:0/18:1)) (18:0 acyl-ACP [11]): 35
Molecule: mangosteen GarmFatA1 mutant D261K (enzyme)

thioesterase specific activity (fold decrease) (14:0-ACP [14]): 30 | thioesterase specific activity (fold decrease) (12:0-ACP [15]): 100
B4: bay thioesterase mutant R327Q (enzyme)
chain: LEWKPKPKLPQLLDDHFGLHGLVFRRTFAIRSYEVGPDRSTSILAVMNHMQEATLNHAKSVGILGDGFGTTLEMSKRDLMWVVRRTHVAVERYPTWGDTVEVECWIGASGNNGMRRDFLVRDCKTGEILTRCTSLSVLMNTRTRRLSTIPDEVRGEIGPAFIDNVAVKDDEIKKLQKLNDSTADYIQGGLTPRWNDLDVNQHVNNLKYVAWVFETVPDSIFESHHISSFTLEYRRECTRDSVLQSLTTVSGGSSEAGLVCDHLLQLEGGSEVLRARTEWRPKLTDSFRGISVIPAEPRV

Km,app (14:0-ACP [12]): 2.3 µM
B6: bay thioesterase triple mutant M197R/R199H/T231K (enzyme)
chain: LEWKPKPKLPQLLDDHFGLHGLVFRRTFAIRSYEVGPDRSTSILAVMNHMQEATLNHAKSVGILGDGFGTTLEMSKRDLMWVVRRTHVAVERYPTWGDTVEVECWIGASGNNGRRHDFLVRDCKTGEILTRCTSLSVLMNTRTRRLSKIPDEVRGEIGPAFIDNVAVKDDEIKKLQKLNDSTADYIQGGLTPRWNDLDVNQHVNNLKYVAWVFETVPDSIFESHHISSFTLEYRRECTRDSVLRSLTTVSGGSSEAGLVCDHLLQLEGGSEVLRARTEWRPKLTDSFRGISVIPAEPRV
